Measurements: ChEMBL document CHEMBL4422612, “Small Molecule Inhibitor that Stabilizes the Autoinhibited Conformation of the Oncogenic Tyrosine Phosphatase SHP2” (J Med Chem, 2019)

Legend:
[1] = compound: CCOc1cc(O)c(C(=O)/C=C/c2ccc(Cl)cc2Cl)cc1CN1CCC=C(n2c(=O)[nH]c3ccccc32)C1; experiment: Mixed type inhibition of human wild-type full length SHP2 assessed as substrate Vmax at 10 uM using H-Glu-Phe-pTyr-Ala-Glu-Val-Gly-Arg-Ser-Pro-Pro-Asp-Pro-Ala-Lys as substrate by Lineweaver-Burk plot analysis (reference value: 5.55 +/- 0.49 uM/min)
[2] = compound: CCOc1cc(O)c(C(=O)/C=C/c2ccc(Cl)cc2Cl)cc1CN1CCC=C(n2c(=O)[nH]c3ccccc32)C1; experiment: Mixed type inhibition of human wild-type full length SHP2 assessed as substrate Km at 10 uM using H-Glu-Phe-pTyr-Ala-Glu-Val-Gly-Arg-Ser-Pro-Pro-Asp-Pro-Ala-Lys as substrate by Lineweaver-Burk plot analysis (reference value: 0.034 +/- 0.012 mM)
[3] = compound: CCOc1cc(O)c(C(=O)/C=C/c2ccc(Cl)cc2Cl)cc1CN1CCC=C(n2c(=O)[nH]c3ccccc32)C1; experiment: Mixed type inhibition of human wild-type full length SHP2 assessed as substrate Kcat at 10 uM using H-Glu-Phe-pTyr-Ala-Glu-Val-Gly-Arg-Ser-Pro-Pro-Asp-Pro-Ala-Lys as substrate by Lineweaver-Burk plot analysis (reference value: 3.19 +/- 0.28 Sec'-1)
[4] = compound: CCOc1cc(O)c(C(=O)/C=C/c2ccc(Cl)cc2Cl)cc1CN1CCC=C(n2c(=O)[nH]c3ccccc32)C1; experiment: Mixed type inhibition of human wild-type full length SHP2 assessed as substrate Vmax at 20 uM using H-Glu-Phe-pTyr-Ala-Glu-Val-Gly-Arg-Ser-Pro-Pro-Asp-Pro-Ala-Lys as substrate by Lineweaver-Burk plot analysis (reference value: 5.55 +/- 0.49 uM/min)
[5] = compound: CCOc1cc(O)c(C(=O)/C=C/c2ccc(Cl)cc2Cl)cc1CN1CCC=C(n2c(=O)[nH]c3ccccc32)C1; experiment: Mixed type inhibition of human wild-type full length SHP2 assessed as substrate Km at 20 uM using H-Glu-Phe-pTyr-Ala-Glu-Val-Gly-Arg-Ser-Pro-Pro-Asp-Pro-Ala-Lys as substrate by Lineweaver-Burk plot analysis (reference value: 0.034 +/- 0.012 mM)
[6] = compound: CCOc1cc(O)c(C(=O)/C=C/c2ccc(Cl)cc2Cl)cc1CN1CCC=C(n2c(=O)[nH]c3ccccc32)C1; experiment: Mixed type inhibition of human wild-type full length SHP2 assessed as substrate Kcat at 20 uM using H-Glu-Phe-pTyr-Ala-Glu-Val-Gly-Arg-Ser-Pro-Pro-Asp-Pro-Ala-Lys as substrate by Lineweaver-Burk plot analysis (reference value: 3.19 +/- 0.28 Sec'-1)
[7] = compound: CCOc1cc(O)c(C(=O)/C=C/c2ccc(Cl)cc2Cl)cc1CN1CCC=C(n2c(=O)[nH]c3ccccc32)C1; experiment: Mixed type inhibition of human wild-type full length SHP2 assessed as Kcat/Km ratio at 10 uM using H-Glu-Phe-pTyr-Ala-Glu-Val-Gly-Arg-Ser-Pro-Pro-Asp-Pro-Ala-Lys as substrate by Lineweaver-Burk plot analysis (reference value: 100.3 +/- 25 /mM/sec)
[8] = compound: CCOc1cc(O)c(C(=O)/C=C/c2ccc(Cl)cc2Cl)cc1CN1CCC=C(n2c(=O)[nH]c3ccccc32)C1; experiment: Mixed type inhibition of human wild-type full length SHP2 assessed as Kcat/Km ratio at 20 uM using H-Glu-Phe-pTyr-Ala-Glu-Val-Gly-Arg-Ser-ProPro-Asp-Pro-Ala-Lys as substrate by Lineweaver-Burk plot analysis (reference value: 100.3 +/- 25 /mM/sec)

B1: Tyrosine-protein phosphatase non-receptor type 11 (Homo sapiens), Q06124 (protein)
chain: MTSRRWFHPNITGVEAENLLLTRGVDGSFLARPSKSNPGDFTLSVRRNGAVTHIKIQNTGDYYDLYGGEKFATLAELVQYYMEHHGQLKEKNGDVIELKYPLNCADPTSERWFHGHLSGKEAEKLLTEKGKHGSFLVRESQSHPGDFVLSVRTGDDKGESNDGKSKVTHVMIRCQELKYDVGGGERFDSLTDLVEHYKKNPMVETLGTVLQLKQPLNTTRINAAEIESRVRELSKLAETTDKVKQGFWEEFETLQQQECKLLYSRKEGQRQENKNKNRYKNILPFDHTRVVLHDGDPNEPVSDYINANIIMPEFETKCNNSKPKKSYIATQGCLQNTVNDFWRMVFQENSRVIVMTTKEVERGKSKCVKYWPDEYALKEYGVMRVRNVKESAAHDYTLRELKLSKVGQGNTERTVWQYHFRTWPDHGVPSDPGGVLDFLEEVHHKQESIMDAGPVVVHCSAGIGRTGTFIVIDILIDIIREKGVDCDIDVPKTIQMVRSQRSGMVQTEAQYRFIYMAVQHYIETLQRRIEEEQKSKRKGHEYTNIKYSLADQTSGDQSPLPPCTPTPPCAEMREDSARVYENVGLMQQQKSFR
- Vmax [1]: 2.6 µM/min
- Km [2]: 47 µM
- kcat [3]: 1.5 s⁻¹
- Vmax [4]: 1.5 µM/min
- Km [5]: 52 µM
- kcat [6]: 0.86 s⁻¹
- kcat/Km [7]: 33.2 mM⁻¹ s⁻¹
- kcat/Km [8]: 17.2 mM⁻¹ s⁻¹
